± gives the half width of the 95% confidence interval.
test: folding stability dG unfold from trypsin proteolysis; higher = more stable
Summary of the method: (§1)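 Unfolding free energy was derived, per protease or combined, against a sequence-predicted unfolded-state K50 and a shared folded-state K50, starting from K50 inferred by Bayesian fitting of sequencing counts. Digestion with trypsin and chymotrypsin was carried out on designed mini-proteins under 80 residues without cysteine in a PA-tagged cDNA display construct. Only designs with AlphaFold2 dimer inter-PAE above 15 were kept.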

Row | Sequence | folding stability dG unfold [kcal/mol]
1 | SAGGMPVTVEITVDLVLDPRYRPRPVYPPGETWREPERRVLPVTFTATFGDPEDAERAAVELLRALGVSAGG [r13_35_TrMRF] | 0.866 ± 0.041
2 | SAGGGMTVETTSKETPLPDGSLRRTETITITEPGGKPLTRTTTKIWDPSTGKVLETRPVSNATVVAESSAGG [r13_1008_JUSTAS] | -0.944 ± 0.82
3 | SAGGSAGGSAGGPPDLVKVRFIKVSVKLKEVKENPNGEKEMKLEMKIEEVEVTVRKDDLSAGGSAGGSAGGS [r10_524_TrROS_Hall] | 2.61 ± 0.21
4 | SAGGSAGGSAGGNYFMMVVLEIRLPPELKGMSPEEWLKKNGYEVTEIEIKGIYPFPPPDGSAGGSAGGSAGG [r7_62_TrROS] | 2.02 ± 0.12
5 | SAGGSKLPKNSKVLIIDLGAPKGIKPNDKVKIPKELIKKIKEKNPNVKFYKEYNIGNKTYIFIVIDSAGGSA [r2_383_TrMRF] | 1.31 ± 0.067
6 | SASNRVTVSSETVREGDKKLLKLTVTITDSSTGRTSTETLTTEDPEKAREELAARPDVSTLTFETLTPGSAG [r14_464_JUSTAS] | 0.303 ± 0.12
7 | SAGGSAGGWIRVDKVEPNPNDDMATVSVEMEDPGDGKKKKFNMTMPSDNPELIDKLPPGDWIEFSAGGSAGG [r6_979_TrROS] | -0.621 ± 0.1
8 | SAMNLRFPLSTEALAKLLENLTPDQTLELRVRIGDRWVRVRLEIHRIERKEDELRVEVTLEVEPLRPEDSAG [r14_335_TrMRF] | 3.33 ± 0.095
9 | SAGGKTVTTPEQILELIKENPGKTYTITITVPKENQKKVEELKKALEEAGLTVEENENGTLTVTIKPSAGGS [r16_335_TrROS_Hall] | 2.2 ± 0.17
10 | SAGGSAKPKIEIEVEKLEGVKEGDTIEVKIKFPNGFIIKIEAKVKRVDGKLVIEVTKVEVIPKEDLSAGGSA [r15_636_TrROS_Hall] | 2.7 ± 0.14
11 | SAGGSAGGMVTFTVEYESDPALLEKLKEELPGVEILEVKREGPKKTITITIKVPSEEKAKKFLSSAGGSAGG [r6_334_JUSTAS] | 0.704 ± 0.086
12 | SAGGSAGGSAAPLEARLVSVSRDPAGNRLHAVYVVRDPSTGEQYLVTFSADPTSISVRVERVSAGGSAGGSA [r18_444_TrMRF] | 2.69 ± 0.12
13 | SAGDAEEIAKKIEEAAREEFAARLGYPDLEILKVEVLEVDPVTGRVRVRVTVRLPDGRLLEAEFEVPVASAG [r5_20_TrMRF] | 3.83 ± 0.06
14 | MRRFEFPETGLVVPVVPSPDGRYRVRIYRPGGELVLEVELPDLPIPEGSDAEIRIPLKDLPPDLVTFVEPES [r1_263_TrMRF] | 0.819 ± 0.054
15 | SAGGSANWYIKITIEYPNGREWEIPFPFKSVEDVKDQIKNAAREYFPNLPPEDVKIDDIELYPLDDSAGGSA [r15_220_TrROS] | 1.3 ± 0.056
16 | SAGGSAKEALVKAVEELFKKLFPDEPIEVLKVDPEKGRITIKVNSDEARKALEKALKELGIEVDLDSAGGSA [r15_196_TrMRF] | 3.75 ± 0.11
17 | SAGGSMTTPPTGEVQVFIDRKTDKWTIRIVDPNAPPTTEEVESEEEAEKVIAELEAKGYKVDTVEPLPSAGG [r13_727_JUSTAS] | 0.658 ± 0.16
18 | SAGGSAGGSAGTETKVLFIDENFESVEEAFQALRDLLPDNYKIEPLGVFPAKNKVVVLVTNPSAGGSAGGSA [r18_429_TrMRF] | 0.646 ± 0.056
19 | SAGGSAGGYIMIPPGAEIDVNPENGKIKIKFRNPDNGEEEKITFDVPPGVKIHMWDNWIMIELPSAGGSAGG [r6_804_TrROS] | 3.3 ± 0.18
20 | SAGGSAGGSAPNMDWVMIPIRVPPGEPPKVKITFPDGPTREFDPGRWVWIWFPPGDPMKIEPESAGGSAGGS [r12_553_TrROS] | 1.04 ± 0.035
21 | SAGGSAGGMLEIEFEKPLPNGETLKIKVFFDKDKPEALVEIENPSTNEKKFYNFTSIDEVIEKESAGGSAGG [r6_464_TrMRF] | 1.03 ± 0.048

Row | Sequence | folding stability dG unfold [kcal/mol]
22 | SAGGEGKEDKKIKVLFINVPVDKPDLLLKLAKEIIEKKEYDIIIVDHPENYKALKEAFPEYDIPIILGSAGG [r13_353_TrMRF] | 2.04 ± 0.064
23 | SAGGSAGGSAGGKRYRVTELEVVEVDGEKRLLVRFEDGRTQAFPAGAKISPDGAEIELLPSAGGSAGGSAGG [r7_931_TrROS_Hall] | 0.469 ± 0.042
24 | SAGGSAGGSAMEINEIVKETAKKGKNLTITVKLPDGSTVTITVTPDEDVPEDLEVLEVTVKSAGGSAGGSAG [r3_421_JUSTAS] | 0.344 ± 0.05
25 | SAGGSAGGSAGGTPIAETEVSEDPATGKLITTSKSPTDPKVYVTTTDLATGVPTTTPLLSAGGSAGGSAGGS [r10_1034_JUSTAS] | 0.761 ± 0.031
26 | SAGGGMGRIPLYGEERVEEIAAEPDVVSVEEDPETGRTYVYFERPDGYYSFTRDNETGEITEKTPLPSAGGS [r8_251_JUSTAS] | -0.462 ± 0.23
27 | SAGMKIVEIEKKEDGTVKIKIEVNGEEKEIEVKVGETITLPDGSEIEVLEDGTIKVRPLPEPEVEEEESAGG [r19_17_TrROS_Hall] | 3.24 ± 0.39
28 | SAGGSAGGSKTLIIKIKVEGLSEEEIAEELAKKLQEETGLKIKSVKIEKKDGYLYIEVEVEEPSAGGSAGGS [r12_781_TrROS_Hall] | 3.86 ± 0.4
29 | SAGGSAGGSMKITVEKDENGNYRVTVTLTVNGKEIKLTVTVPKNTTPEEVKKKAEELAKELLKSAGGSAGGS [r12_69_TrROS_Hall] | 4.39 ± 0.55
30 | SAGGSAGGMIVTTTFLPGNLKVVNVTTTYETTDPSGTTTSTTTTSTTIEYIPPVPVDINNPLLISAGGSAGG [r6_920_JUSTAS] | 1.41 ± 0.071
31 | SKTVEITLTNEDGSTVTITFNEETGKIVIKVPPNVSVEQIKALLRKLLPPGAEVTITRTPNGYYEIEVKPSA [r9_933_TrROS_Hall] | 3.68 ± 0.13
32 | SAGGSAGGSPETLTITVKEKPVRIEINGKVIEVKPGDTITIPKELANNIRIEVNEDGSITITPSAGGSAGGS [r20_150_TrROS_Hall] | 1.92 ± 0.2
33 | SMIVKSEPVKDPNSDLTTTPVTITLPVREYDPSLGVTRERLVTINGTVITTLLEKHPDGSVISTVDVLPASA [r9_1058_JUSTAS] | -0.177 ± 0.026
34 | SAGMTVSTETTTFTDPAGFETTVTTLTTTHPDGSVTSTPTTTVTAVPVPPPPAPVPVDPANPDNPALLSAGG [r19_12_JUSTAS] | 0.461 ± 0.038
35 | SAGGHTIWIPFDSPEQAKELANEIARELNDHGLKVKVKVHPDDGWIKVKVDMRNNDKEKKIKIWFPFPSAGG [r13_641_TrROS] | 0.844 ± 0.1
36 | SAGGGSSSSSLTFTYDPATGKVLGSESFTIPSPSGEPRTNVLTLVEKNPSGTLKTTVLTRPVPPTLSSAGGS [r16_595_JUSTAS] | 1.55 ± 0.1
37 | SAGGSAGGSAGGSMIVEEDPVGPEKVTTVTLPEKDKLVTVTETFLPDGSVVTTTTPVPSSAGGSAGGSAGGS [r4_332_JUSTAS] | 1.8 ± 0.17
38 | SAGGSAGGSAMTTVTSTTEIPPSALTVKTSVSTAPDGSLVETTTVVLPDGSVVTTTLSTVASAGGSAGGSAG [r3_7_JUSTAS] | 0.974 ± 0.035
39 | SAGMVRIETYTHPDGTLRLVVYRPETGERAVFEFPLEDPEKFREAVEELAERLREEGFPVEVDIRPTLPSAG [r5_815_TrMRF] | 3 ± 0.086
40 | SAGGMPENMKWRPIPFTQKNPDGLTLKMKIWVFPDPYILIEHEVEDNGKPVAEIPILLPADDPEDLKSAGGS [r16_714_TrROS] | -0.66 ± 0.6
41 | SAGGSAGGSAGMPLTVLGTEEIGDSTTVTTKDPTSDELYRKTYTNGAVSSTEIVPASELGSAGGSAGGSAGG [r11_19_JUSTAS] | 0.0214 ± 0.053
42 | SAGGSAGGSKGPMITITLFILVRPDDGKYYATVIEMYIYPNGGIDIEMEMIPADDIPPGDIVISAGGSAGGS [r12_38_TrROS] | 2.94 ± 0.17

test: folding stability dG unfold from chymotrypsin proteolysis; higher = more stable
Summary of the method: as §1

Row | Sequence | folding stability dG unfold [kcal/mol]
43 | SAGGMPVTVEITVDLVLDPRYRPRPVYPPGETWREPERRVLPVTFTATFGDPEDAERAAVELLRALGVSAGG [r13_35_TrMRF] | 1.73 ± 0.032
44 | SAGGGMTVETTSKETPLPDGSLRRTETITITEPGGKPLTRTTTKIWDPSTGKVLETRPVSNATVVAESSAGG [r13_1008_JUSTAS] | -0.0787 ± 0.15
45 | SAGGSAGGSAGGPPDLVKVRFIKVSVKLKEVKENPNGEKEMKLEMKIEEVEVTVRKDDLSAGGSAGGSAGGS [r10_524_TrROS_Hall] | 2.71 ± 0.12
46 | SAGGSAGGSAGGNYFMMVVLEIRLPPELKGMSPEEWLKKNGYEVTEIEIKGIYPFPPPDGSAGGSAGGSAGG [r7_62_TrROS] | 3.31 ± 0.062
47 | SAGGSKLPKNSKVLIIDLGAPKGIKPNDKVKIPKELIKKIKEKNPNVKFYKEYNIGNKTYIFIVIDSAGGSA [r2_383_TrMRF] | 2.39 ± 0.059
48 | SASNRVTVSSETVREGDKKLLKLTVTITDSSTGRTSTETLTTEDPEKAREELAARPDVSTLTFETLTPGSAG [r14_464_JUSTAS] | -0.196 ± 0.2
49 | SAGGSAGGWIRVDKVEPNPNDDMATVSVEMEDPGDGKKKKFNMTMPSDNPELIDKLPPGDWIEFSAGGSAGG [r6_979_TrROS] | 0.215 ± 0.11
50 | SAMNLRFPLSTEALAKLLENLTPDQTLELRVRIGDRWVRVRLEIHRIERKEDELRVEVTLEVEPLRPEDSAG [r14_335_TrMRF] | 3.34 ± 0.06
51 | SAGGKTVTTPEQILELIKENPGKTYTITITVPKENQKKVEELKKALEEAGLTVEENENGTLTVTIKPSAGGS [r16_335_TrROS_Hall] | 3.89 ± 0.14
52 | SAGGSAKPKIEIEVEKLEGVKEGDTIEVKIKFPNGFIIKIEAKVKRVDGKLVIEVTKVEVIPKEDLSAGGSA [r15_636_TrROS_Hall] | 3.17 ± 0.2
53 | SAGGSAGGMVTFTVEYESDPALLEKLKEELPGVEILEVKREGPKKTITITIKVPSEEKAKKFLSSAGGSAGG [r6_334_JUSTAS] | 1.16 ± 0.11
54 | SAGGSAGGSAAPLEARLVSVSRDPAGNRLHAVYVVRDPSTGEQYLVTFSADPTSISVRVERVSAGGSAGGSA [r18_444_TrMRF] | 4.48 ± 0.089
55 | SAGDAEEIAKKIEEAAREEFAARLGYPDLEILKVEVLEVDPVTGRVRVRVTVRLPDGRLLEAEFEVPVASAG [r5_20_TrMRF] | 3.41 ± 0.06
56 | MRRFEFPETGLVVPVVPSPDGRYRVRIYRPGGELVLEVELPDLPIPEGSDAEIRIPLKDLPPDLVTFVEPES [r1_263_TrMRF] | 1.46 ± 0.09
57 | SAGGSANWYIKITIEYPNGREWEIPFPFKSVEDVKDQIKNAAREYFPNLPPEDVKIDDIELYPLDDSAGGSA [r15_220_TrROS] | 2.01 ± 0.04
58 | SAGGSAKEALVKAVEELFKKLFPDEPIEVLKVDPEKGRITIKVNSDEARKALEKALKELGIEVDLDSAGGSA [r15_196_TrMRF] | 2.91 ± 0.092
59 | SAGGSMTTPPTGEVQVFIDRKTDKWTIRIVDPNAPPTTEEVESEEEAEKVIAELEAKGYKVDTVEPLPSAGG [r13_727_JUSTAS] | 1.14 ± 0.5
60 | SAGGSAGGSAGTETKVLFIDENFESVEEAFQALRDLLPDNYKIEPLGVFPAKNKVVVLVTNPSAGGSAGGSA [r18_429_TrMRF] | 0.189 ± 0.27
61 | SAGGSAGGYIMIPPGAEIDVNPENGKIKIKFRNPDNGEEEKITFDVPPGVKIHMWDNWIMIELPSAGGSAGG [r6_804_TrROS] | 3.14 ± 0.12
62 | SAGGSAGGSAPNMDWVMIPIRVPPGEPPKVKITFPDGPTREFDPGRWVWIWFPPGDPMKIEPESAGGSAGGS [r12_553_TrROS] | 1.87 ± 0.13
63 | SAGGSAGGMLEIEFEKPLPNGETLKIKVFFDKDKPEALVEIENPSTNEKKFYNFTSIDEVIEKESAGGSAGG [r6_464_TrMRF] | 1.7 ± 0.2
